The record followed here is PMC7022778.

The assay deals with catalase from Serratia sp. strain I1P (Serratia sp. strain I1P). Kind of assay: SEC; Superdex-200 in 50 mM Tris HCl pH 8.0 with 0.2 M NaCl, calibrated with standard proteins; native apparent mass compared with the subunit mass by SDS-PAGE.

What is called stoichiometry N is the number of molecules, sites or subunits per partner or assembly. With “catalase from Serratia sp. strain I1P (enzyme)”, the stoichiometry N was 4.
